# Where two headings read alike, the source gives them in different places.
# T1: His-tagged full-length N-MYC (human, UniProt P04198 1-464)
# T1 chain: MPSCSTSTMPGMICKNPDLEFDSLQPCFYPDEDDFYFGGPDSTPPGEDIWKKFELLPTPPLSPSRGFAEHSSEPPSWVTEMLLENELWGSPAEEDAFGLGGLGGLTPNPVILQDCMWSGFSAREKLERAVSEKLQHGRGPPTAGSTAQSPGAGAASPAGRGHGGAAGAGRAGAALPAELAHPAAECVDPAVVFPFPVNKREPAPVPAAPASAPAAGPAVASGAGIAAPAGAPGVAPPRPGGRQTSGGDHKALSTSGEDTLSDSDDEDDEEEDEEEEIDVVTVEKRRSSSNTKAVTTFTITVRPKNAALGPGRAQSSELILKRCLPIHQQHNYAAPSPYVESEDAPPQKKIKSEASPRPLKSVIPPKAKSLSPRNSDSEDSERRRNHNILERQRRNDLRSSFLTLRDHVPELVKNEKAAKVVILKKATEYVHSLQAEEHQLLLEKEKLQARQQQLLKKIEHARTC
# Assays:
# [1] = biological target: T2, His-tagged full-length c-MYC (human, UniProt P01106-1 1-439); assay: SPR
# [2] = biological target: His-tagged C-terminal c-MYC (human); assay: SPR
# His-tagged MAX [3] = biological target: T3, His-tagged MAX (human, UniProt P61244 1-160); assay: SPR
# [4] = biological target: T1, His-tagged full-length N-MYC; assay: SPR
# [5] = biological target: T2, His-tagged full-length c-MYC; assay: SPR; remark: listed apart in the source
# His-tagged MAX [6] = biological target: T3, His-tagged MAX; assay: SPR; repeat
# T2 sequence (P01106 16-454): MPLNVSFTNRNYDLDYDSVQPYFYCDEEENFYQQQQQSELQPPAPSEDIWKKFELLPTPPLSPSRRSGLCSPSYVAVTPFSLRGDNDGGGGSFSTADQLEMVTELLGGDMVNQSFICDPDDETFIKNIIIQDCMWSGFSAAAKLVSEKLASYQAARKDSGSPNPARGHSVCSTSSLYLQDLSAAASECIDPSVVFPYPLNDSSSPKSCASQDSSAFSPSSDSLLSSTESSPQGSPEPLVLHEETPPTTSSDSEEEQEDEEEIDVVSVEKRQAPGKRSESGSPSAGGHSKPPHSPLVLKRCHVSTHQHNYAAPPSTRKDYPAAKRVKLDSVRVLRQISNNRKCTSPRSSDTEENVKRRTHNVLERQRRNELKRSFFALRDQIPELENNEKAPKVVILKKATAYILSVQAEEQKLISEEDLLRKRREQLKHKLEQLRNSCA
# T3 sequence (P61244 whole entry): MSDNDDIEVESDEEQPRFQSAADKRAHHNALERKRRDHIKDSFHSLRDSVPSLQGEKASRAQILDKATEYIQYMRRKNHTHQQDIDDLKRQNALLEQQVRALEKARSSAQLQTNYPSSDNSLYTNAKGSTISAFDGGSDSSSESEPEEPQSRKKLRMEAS
# Chain of His-tagged C-terminal c-MYC (human) (chain, as listed by the source): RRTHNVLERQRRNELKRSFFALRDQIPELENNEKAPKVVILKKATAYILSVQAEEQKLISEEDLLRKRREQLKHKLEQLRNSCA
Binder,Kd [1] [nM],Kd [2] [nM],Kd (His-tagged MAX [3]) [nM],Kd [4] [nM],Kd [5] [nM],Kd (His-tagged MAX [6]) [nM]
Lon peptidase domain peptide (aa 581-778) (domain or fragment) VQRFDYGRADNENRVGQVTGLAWTEVGGDLLTIETACVPGKGKLTYTGSLGEVMQESIQAALTVVRARAEKLGINPDFYEKRDIHVHVPEGATPKDGPSAGIAMCTALVSCLTGNPVRADVAMTGEITLRGQVLPIGGLKEKLLAAHRGGIKTVLIPFENKRDLEEIPDNVIADLDIHPVKRIEEVLTLALQNEPSGM,849,,,,,
"recombinant Escherichia coli Lon protease (aa 1-778) (enzyme, His-tag omitted. The paper does not print the limits of Origene TP762404. Limits follow the paper's modelled C-terminal part, c-MYC aa 356-439 in 439-aa numbering, shifted by +15 to the 454-aa entry (bHLH-leucine zipper to the C-terminus). The bought construct may start earlier.) MNPERSERIEIPVLPLRDVVVYPHMVIPLFVGREKSIRCLEAAMDHDKKIMLVAQKEASTDEPGVNDLFTVGTVASILQMLKLPDGTVKVLVEGLQRARISALSDNGEHFSAKAEYLESPTIDEREQEVLVRTAISQFEGYIKLNKKIPPEVLTSLNSIDDPARLADTIAAHMPLKLADKQSVLEMSDVNERLEYLMAMMESEIDLLQVEKRIRNRVKKQMEKSQREYYLNEQMKAIQKELGEMDDAPDENEALKRKIDAAKMPKEAKEKAEAELQKLKMMSPMSAEATVVRGYIDWMVQVPWNARSKVKKDLRQAQEILDTDHYGLERVKDRILEYLAVQSRVNKIKGPILCLVGPPGVGKTSLGQSIAKATGRKYVRMALGGVRDEAEIRGHRRTYIGSMPGKLIQKMAKVGVKNPLFLLDEIDKMSSDMRGDPASALLEVLDPEQNVAFSDHYLEVDYDLSDVMFVATSNSMNIPAPLLDRMEVIRLSGYTEDEKLNIAKRHLLPKQIERNALKKGELTVDDSAIIGIIRYYTREAGVRGLEREISKLCRKAVKQLLLDKSLKHIEINGDNLHDYLGVQRFDYGRADNENRVGQVTGLAWTEVGGDLLTIETACVPGKGKLTYTGSLGEVMQESIQAALTVVRARAEKLGINPDFYEKRDIHVHVPEGATPKDGPSAGIAMCTALVSCLTGNPVRADVAMTGEITLRGQVLPIGGLKEKLLAAHRGGIKTVLIPFENKRDLEEIPDNVIADLDIHPVKRIEEVLTLALQNEPSGM",,398,,,,
recombinant Escherichia coli Lon protease (aa 1-778) (enzyme) MNPERSERIEIPVLPLRDVVVYPHMVIPLFVGREKSIRCLEAAMDHDKKIMLVAQKEASTDEPGVNDLFTVGTVASILQMLKLPDGTVKVLVEGLQRARISALSDNGEHFSAKAEYLESPTIDEREQEVLVRTAISQFEGYIKLNKKIPPEVLTSLNSIDDPARLADTIAAHMPLKLADKQSVLEMSDVNERLEYLMAMMESEIDLLQVEKRIRNRVKKQMEKSQREYYLNEQMKAIQKELGEMDDAPDENEALKRKIDAAKMPKEAKEKAEAELQKLKMMSPMSAEATVVRGYIDWMVQVPWNARSKVKKDLRQAQEILDTDHYGLERVKDRILEYLAVQSRVNKIKGPILCLVGPPGVGKTSLGQSIAKATGRKYVRMALGGVRDEAEIRGHRRTYIGSMPGKLIQKMAKVGVKNPLFLLDEIDKMSSDMRGDPASALLEVLDPEQNVAFSDHYLEVDYDLSDVMFVATSNSMNIPAPLLDRMEVIRLSGYTEDEKLNIAKRHLLPKQIERNALKKGELTVDDSAIIGIIRYYTREAGVRGLEREISKLCRKAVKQLLLDKSLKHIEINGDNLHDYLGVQRFDYGRADNENRVGQVTGLAWTEVGGDLLTIETACVPGKGKLTYTGSLGEVMQESIQAALTVVRARAEKLGINPDFYEKRDIHVHVPEGATPKDGPSAGIAMCTALVSCLTGNPVRADVAMTGEITLRGQVLPIGGLKEKLLAAHRGGIKTVLIPFENKRDLEEIPDNVIADLDIHPVKRIEEVLTLALQNEPSGM,,,164,332,382,174
Lon N-terminal domain peptide (aa 1-245) (domain or fragment) MNPERSERIEIPVLPLRDVVVYPHMVIPLFVGREKSIRCLEAAMDHDKKIMLVAQKEASTDEPGVNDLFTVGTVASILQMLKLPDGTVKVLVEGLQRARISALSDNGEHFSAKAEYLESPTIDEREQEVLVRTAISQFEGYIKLNKKIPPEVLTSLNSIDDPARLADTIAAHMPLKLADKQSVLEMSDVNERLEYLMAMMESEIDLLQVEKRIRNRVKKQMEKSQREYYLNEQMKAIQKELGEMD,,,294,402,462,1690
Lon AAA+ domain peptide (aa 241-584) (domain or fragment) LGEMDDAPDENEALKRKIDAAKMPKEAKEKAEAELQKLKMMSPMSAEATVVRGYIDWMVQVPWNARSKVKKDLRQAQEILDTDHYGLERVKDRILEYLAVQSRVNKIKGPILCLVGPPGVGKTSLGQSIAKATGRKYVRMALGGVRDEAEIRGHRRTYIGSMPGKLIQKMAKVGVKNPLFLLDEIDKMSSDMRGDPASALLEVLDPEQNVAFSDHYLEVDYDLSDVMFVATSNSMNIPAPLLDRMEVIRLSGYTEDEKLNIAKRHLLPKQIERNALKKGELTVDDSAIIGIIRYYTREAGVRGLEREISKLCRKAVKQLLLDKSLKHIEINGDNLHDYLGVQRF,534,,,,,
"Lon N-terminal domain peptide (aa 1-245) (domain or fragment, His-tag omitted. The paper does not print the limits of Origene TP762404. Limits follow the paper's modelled C-terminal part, c-MYC aa 356-439 in 439-aa numbering, shifted by +15 to the 454-aa entry (bHLH-leucine zipper to the C-terminus). The bought construct may start earlier.) MNPERSERIEIPVLPLRDVVVYPHMVIPLFVGREKSIRCLEAAMDHDKKIMLVAQKEASTDEPGVNDLFTVGTVASILQMLKLPDGTVKVLVEGLQRARISALSDNGEHFSAKAEYLESPTIDEREQEVLVRTAISQFEGYIKLNKKIPPEVLTSLNSIDDPARLADTIAAHMPLKLADKQSVLEMSDVNERLEYLMAMMESEIDLLQVEKRIRNRVKKQMEKSQREYYLNEQMKAIQKELGEMD",,495,,,,

# From publication PMC11861601 (2025)
